{"source": "paper PMC4558601", "about": "“Architecture of the Synaptophysin/Synaptobrevin Complex: Structural Evidence for an Entropic Clustering Function at the Synapse” (Scientific Reports, 2015)", "proteins": {"B1": {"name": "synaptophysin (SYP), native, from calf brain (natural protein, bovine (endogenous in calf brain), UniProt P20488 1-313, looked up)", "chain": "MLLLADMDVVNQLVAGGQFRVVKEPLGFVKVLQWVFAIFAFATCGSYSGELQLSVDCANKTKSDLNIEVEFEYPFRLHEVYFEAPTCQGDPKKIFLVGNYSSSAEFFVTVAVFAFLYSMGALATYIFLQNKYRENNKGPMLDFLATAVFAFMWLVSSSAWAKGLSDVKMATDPENIIKGMHVCHQPGNTCKELRDPVTSGLNTSVVFGFLNLVLWVGNLWFVFKETGWAAPFLRAPPGAPEKQPAPGDAYGQAGYGQGPGGYGPQDSYGPQGGYQPDYGQPASSGGGGYGPQGDYGQQGYGPQGAPTSFSNQM", "notes": "synaptophysin (SYP), bovine, native protein isolated from calf brain synaptic vesicles together with VAMP2; 4-pass integral membrane protein; Endogenous protein, co-purified with VAMP2 as a native complex; source: purified from calf brain synaptic vesicles (Triton X-100 extract with cholesterol; hydroxyapatite/celite flow through, anion exchange, size exclusion)"}}, "target": "the molecule itself", "assay": "SEC + other: SDS-PAGE densitometry and western blot of the co-purified native complex; native SYP/VAMP2 complex purified from calf brain synaptic vesicles in high cholesterol; Sephacryl S-300 in 20 mM NaH2PO4 pH 6.8, 0.2% Brij-35, 0.1% cholesterol, 40 mM sucrose; fractions analysed by SDS-PAGE, silver stain, western blot, densitometry", "data": [{"protein": "B1", "values": [{"measurement": "stoichiometry N", "value": 6}]}]}
